What all share (test): AUC
Test [1] addresses LZ5 K309C/C335A mutant of the Nek2 leucine zipper (UniProt P51955).
For test [2], the target named is Nek2 core leucine zipper construct LZ5 (residues 299-343) (UniProt P51955).
Test [3] concerns the target Nek2 leucine zipper construct LZ0 (residues 290-360) (UniProt P51955).

For the substance “LZ5 K309C/C335A mutant of the Nek2 leucine zipper (from UniProt P51955 299-343) (domain or fragment)”, the stoichiometry N in test [1] came to 2.

In turn, “Nek2 core leucine zipper construct LZ5 (residues 299-343) (from UniProt P51955 299-343) (domain or fragment)” returned a stoichiometry N in test [2] of 2.

Take “Nek2 leucine zipper construct LZ0 (residues 290-360) (from UniProt P51955 290-360) (domain or fragment)”: the stoichiometry N in test [3] stood at 2.

The values above are taken from publication PMC3149346.
